Assay results from a protein production outcome set (Wang et al. 2014).

Experiment: label from the status in PepcDB records
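Note: failed if final PepcDB status was selected cloned or expressed and not failed if soluble or beyond.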

Sequence	protein production
MSARSGFWYACSPPSAPGWCRFFDLLTCCTDEDGLMRDVALCCRSIAIDVRGLLRIDTQEGSAEKLRPSQTDVFNALASFLVAVGSQPYCNLASHPRHLDALAIPDTRYPIPDTQPMTFREPVDLVALNAASRDTLIEHLGIVFTEAGDDWLRATMPVDARTRQPYGLLHGGASVVLAETLGSSAGNLCVDMTTRMCVGLEINANHLRAATQGLVTGTARAVHVGRSTHVWDITIENPVGKRVCVSRLTLAVVARGNG	failed
MSASICCRCNEKIWPRAVCSLGKTYHPHHFTCKECGLVVDPKLFFAVDDDVVCSECYLDKHAARCSACRTPILERGVAAAERKWHEKCFRCVSCSKSLVSASFFEVNGYLFCKAHFRELFSSRCAGCEKPIDRRAVVALSTKWHAKCFKCHHCRKRISAREFWIENGQPICAACQTVVPSPRNLSAQ	failed
MSASIMTWPVLSVVTFLPVLGAALVYLARGEDEAARRNARWISLWTTLITFAVSLLLVWHFDPANPGFQFVEKAPWLGNTITYHMGLDGISLPLVILTTAIMPFCIIASWRSVTVRVREYMIAFLILETLMIGTFSALDLVLFYLFFEGGLIPMFLIIGIWGGPRRVYASFKFFLYTLLGSVLMLLAIMALYWNAGTTDIPTLMRTSVPSGLQTWAWLAFFASFAVKMPMWPVHTWLPDAHVEAPTAGSVVLAAILLKMGGYGFLRFSLPMFPDASAYFAPLIYTLSVIAIIYTSLVALMQEDIKKLIAYSSVAHMGFVTMGIFAGTTQGVAGAVFQMVSHGIVSGALFLCVGVVYDRMHTREIAAYGGLVNRMPLYALVFMVFTMANVGLPGTSGFVGEFLTLLGTFRVNIPTATLATTGVILSAGYALWLYRKVVFGAMTKPALASIKDLTWREGLMMAPLLVLTILFGFYPKPVLDMSAASVQQLVNNYAAAVTAVKAAALP	failed
MSASPQAPTPPDRSSPSVSSNLGAEGAGGRRLCGSVVLSAGKILSVDKTLWQALGLSAESLSGLPFLSFLEDPSREVLAARLRLAGPPWDLRTALRVDGRAIPVVLRGDGAADRTTDTPLQVILITLAPQEGEVEPVSQSALFDHIPLGVMLSDGLGRIAYANPAFLAEDIAAVRALLGATPQALATGYLHEGLARTLWEDLLCGRVWRNDVDLPTADGQRTHSRLTIIPLRRDDGAVDRLMTVIEPRSPATDSQAWQQVNHDTLTGLPNRVLFQDRLLTALASARRRNDQLAVLFVDLDHFKTVNDSLGHSFGDQLLQQVATRLSQCLRDSDTLARMGGDEFTIALTGDGHQRDYAMIANRILETLRRPFTLEGGHEVLIGSSIGITLFPNDAEDVDTLLRNADTAMYRAKASGRNAFQFFTEEMNREIQSHLDLENALRRAVRAMDLTIHYQPVVDSATLAVVSAEALVRWPLADKGFIPPSRFIPVAEELGLIDEIGGWVLWNACTQAKVWQAQGAKAFRVSVNVSWRQLRNPDFALRVREALEGTGLGAAFLELEITEGMVLRDPQGIAPALMALSEMGVALAIDNFGSGHSSIKCLRQFPFSILKLDRSCVADVLTSHEDAVLVETAAIMARRLGLTVVAEGVETHAQLEFLREHYCDLIQGYLFGRPLPPEDFARML	failed
MSASSLFNLPLIRLRSLALSSSFSSFRFAHRPLSSISPRKLPNFRAFSGTAMTDTKDAGMDAVQRRLMFEDECILVDETDRVVGHDSKYNCHLMENIEAKNLLHRAFSVFLFNSKYELLLQQRSNTKVTFPLVWTNTCCSHPLYRESELIQDNALGVRNAAQRKLLDELGIVAEDVPVDEFTPLGRMLYKAPSDGKWGEHELDYLLFIVRDVKVQPNPDEVAEIKYVSREELKELVKKADAGEEGLKLSPWFRLVVDNFLMKWWDHVEKGTLVEAIDMKTIHKL	failed
MSASVVCVVGNPNCGKTTLFNALTGGRQSVGNWPGVTVEKKVGAYRHGGEAVTIVDLPGVYSLTPTSSSSEDERVARDYILSGEAGLVLNIVDASNLERNLYLTAQLLEMRVPMVVIVNMMDIAASRHLDIDIDALSKSLDCKVVPMVASRRRGLDDLREVIAQSMGRTTPPAASAPYPPAVSEAVGRIAATLPADSRADRRWTALQLLEGDSTLLRDLPPATALALESDLKQAAQSGTEDFDILIADARYGFVGAIALGAVIRKGQMSRTLTDRIDKVVLHRVLGIPIFLAMMYLMFVFTINVGGAFIDFFDQFAGTLFVDGFGHLLGGAGAPDWLTALLAKGVGGGVQTVATFIPVIGFLYLFLSVLEDSGYMARAAFVMDRFMRGIGLPGKAFVPLIVGFGCNVPAVMATRTMDSRRDRLITVMMAPFMSCGARLPVYVLFAAAFFPSGGQNLVFALYLIGILVAIATGLLLKTTALRGEASPFVMEMPPYHLPTVAGILLRTWDRLKSFILRAGKLVVAVVVVLSFLNSWGTDGSFGNEDTDKSVLAAIGKAIVPVFAPMGISEENWPATVGVFTGIFAKEAVVGTLDALYGTIAEGNAAAAQAEADPEAAATEEPEAFDLWGGLAGAFATIPANLSNVAGALADPLGIEVGDLSDRSAVAADQEISTSSIDAIALLFDGAIGAFAYLLMVLLYMPCVAAVSAIWREVGTRWTLFAAAWTTGMGYGAAVLTYQIGTFSRHPVSSAVDIAVVLAVLAAAIALLRLAGRGSAEAGPISAGQTAS	failed
MSATLKDYLNKRVVIIKVDGECLIASLNGFDKNTNLFITNVFNRISKEFICKAQLLRGSEIALVGLIDAENDDSLAPIDEKKVPMLKDTKNKIENEHVIWEKVYESKTK	failed
MSATTTNLKEAIVNRRSIRKVTKNDAITKERIEEVLKTALHAPTSFNMQSGRMVVLMDGEHEKFWDIVKETLRARVPAENFEATVERLKGFHAGVGTVLFFEDQATVEKMQENAPLYKDQFPFWSHQGNAMLQHTVWMLLSAEGIGASLQHYNPIVDAEVKETWNIPAEWSLVGQMPFGEPNEQPAERTFLPTEDVVKFY	not failed
MSAVFSGGLTQAGGMSSTETVDSSAVSSGTISDYVEAMGPSWIAGAIAAGPATIASLVTAGGAFGYSLLWVVVLSAGAGALAQYLAMRLGLLTERGIVAVVEDHLGETWAWLLVGDAVLAAGVAQLVIMKTVATVSATVTGIDARIWGVVWALILAAGLAGGGYRFLELAAKILVLLVVVAFVASLFVVPIDAGAAVAGLVPSVPSGSALVAAGILGGAVHITLITMHSYTMRARGWTREDYDLATVDVGASMLVAFGIYSLAIFLVTASVLTSGDLTTVGAAEALGPLVGDSARWLFLLGLWGAAVSTLGGNTIVPPFLLADKLGWGTTIEDNRYRGLLAAVALLSAPGAFIGGNVLGQLVLVLALGTVGTPFAIALVLYLLNSAAVPESNSLLANVGGLALIAVSGGLAANFVVEQLGGGVGPLSGFVLAFAIALGLAMAGLGGKFLREELLA	failed
MSCVDKGFSPYISLLISGLTVVFDQVIKWQTQQSIAYGDSISLTPFFNWVHTWNTGAAFGLLSNGGGWQRYFFIGVALLMSVALTRLIFNKVSKRDGISYGLILGGAVGNLIDRLFRGYVVDSLHLGWQTWQLPVFNIADIAITLGVILLLLSNLQVSMIPNLPGSK	failed
MSDAEQPAESETHDHHDHDHEGPGYATPQAAIEAAEPEQTAYVMGLHVGQDVDAPDFLAVVDLDPDSDTYSEIINRVQMPNKGDELHHFGWNACSSSCHMDGLERRHLVIPGQRSSRIHIVDTKERRDPELTKVIEPEEVYEHDLSAPHTVHCIPDGEILISMLGDADGDLPGGFLELNDDFEVQGRWDPPGEIEMNYDYWYQPRQNVMLSTEWAAPKTYYPGFDLDDVEDGKYGQRLNFWDWEDGVIEQTIDLGEDGLIPLEARFLHTPESTHGYVGAALSSNIIHFHESDGRYHAEPVIEFDDREHEGWDMPVPALVTDILISMDDRYLFGSSWLHGEVWMYDISDPSNPRKADSISIGGYFGDIEQVQGRDIVAGPQMLQLSLDGERLYWTTSLFSSWDNQFFPEEAEKGSVMLKADVDPRTGTMSLDRDFLVDFGDLPEGPARAHEIRWPDGDCTSDVWQ	failed
